Patent US20090180995A1, “NOVEL ANTICOAGULANT POLYPEPTIDES AND COMPLEX” (National University of Singapore, priority 2005, published 2009)

Tests used:
[1] = target: FVIIa-sTF (human) (UniProt P08709); experiment: non-competitive inhibition kinetics of FVIIa-sTF amidolytic activity on S-2288
[2] = target: FVIIa-sTF (human) (UniProt P08709); experiment: cell-based or functional assay
[3] = target: FVIIa (human) (UniProt P08709); experiment: cell-based or functional assay
[4] = target: FVIIa (human) (UniProt P08709)

FVIIa (human), sequence (P08709 61-212 limits assumed, chain 1 of 2): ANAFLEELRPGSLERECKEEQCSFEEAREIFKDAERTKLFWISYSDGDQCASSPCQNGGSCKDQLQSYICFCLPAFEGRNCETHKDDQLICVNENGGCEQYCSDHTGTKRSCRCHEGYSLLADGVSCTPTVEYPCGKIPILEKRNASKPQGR
FVIIa (human), sequence (P08709 213-466 limits assumed, chain 2 of 2): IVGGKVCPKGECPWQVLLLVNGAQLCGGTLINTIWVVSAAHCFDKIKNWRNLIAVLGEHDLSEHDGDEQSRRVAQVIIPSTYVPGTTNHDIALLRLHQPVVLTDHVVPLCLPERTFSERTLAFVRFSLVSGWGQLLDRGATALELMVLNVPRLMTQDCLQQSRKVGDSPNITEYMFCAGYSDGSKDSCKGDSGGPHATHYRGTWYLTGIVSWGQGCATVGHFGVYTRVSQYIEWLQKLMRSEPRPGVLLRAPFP
FVIIa-sTF (human), sequence (P08709 61-212 limits assumed, chain 1 of 3): as the sequence (P08709 61-212 limits assumed, chain 1 of 2) above
FVIIa-sTF (human), sequence (P13726 33-251 limits assumed, chain 2 of 3, further chain): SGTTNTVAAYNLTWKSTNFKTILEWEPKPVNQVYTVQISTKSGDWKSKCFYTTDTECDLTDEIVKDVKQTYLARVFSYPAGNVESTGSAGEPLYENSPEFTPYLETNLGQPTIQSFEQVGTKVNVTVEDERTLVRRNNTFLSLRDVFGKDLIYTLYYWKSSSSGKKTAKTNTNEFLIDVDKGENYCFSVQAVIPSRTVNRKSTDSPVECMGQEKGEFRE
FVIIa-sTF (human), sequence (P08709 213-466 limits assumed, chain 3 of 3): as the sequence (P08709 213-466 limits assumed, chain 2 of 2) above

B1: hemextin AB complex (protein)
chain 1: LKCKNKLVPFLSKTCPEGKNLCYKMTMLKMPKIPIKRGCTDACPKSSLLVKVVCCNKDKCN
chain 2: LKCKNKVVPFLKCKNKVVPFLCYKMTLKKVPKIPIKRGCTDACPKSSLLVNVMCCKTDKCN
**Q.** For B1, which Ki [1] is on record?
**A.** 25 nM

**Q.** What about the IC50, inhibition of FVIIa amidolytic activity in the presence of sTF [2] of the same binder?
**A.** 100 nM

**Q.** And the IC50, inhibition of FVIIa amidolytic activity in the absence of sTF [3]?
**A.** 105 nM

**Q.** What about the inhibitory potency towards FVIIa relative to plasma kallikrein [3] of the same binder?
**A.** > 50 times

**Q.** What about the Ka [4] of the same binder?
**A.** 411000 M⁻¹

**Q.** And the ΔG [4]?
**A.** -7.54

**Q.** And the ΔH [4]?
**A.** -7.93

**Q.** What about the ΔS [4] of the same binder?
**A.** -1.25 cal/M
